Measured values reported in US20200179497A1 (HANSA BIOPHARMA, published 2020).

B1: pCART203 (enzyme)
chain: MDDYQRNATEAYAKEVPHQITSVWTKGVTPPEQFTQGEDVIHAPYLAHQGWYDITKAFDGKDNLLCGAATAGNMLHWWFDQNKTEIEAYLSKHPEKQKIIFNNQELFDLKAAIDTKDSQTNSQLFNYFRDKAFPNLSARQLGVMPDLVLDMFINGYYLNVFKTQSTDVNRPYQDKDKRGGIFDAVFTRGDQTTLLTARHDLKNKGLNDISTIIKQELTEGRALALSHTYANVSISHVINLWGADFNAEGNLEAIYVTDSDANASIGMKKYFVGINAHGHVAISAKKIEGENIGAQVLGLFTLSSGKDIWQKLSGGGHHHHHH
B2: pCART201 (enzyme)
chain: MSVWTKGVTPLTPEQFRYNNEDVIHAPYLAHQGWYDITKAFDGKDNLLCGAATAGNMLHWWFDQNKTEIEAYLSKHPEKQKIIFNNQELFDLKAAIDTKDSQTNSQLFNYFRDKAFPNLSARQLGVMPDLVLDMFINGYYLNVFKTQSTDVNRPYQDKDKRGGIFDAVFTRGDQTTLLTARHDLKNKGLNDISTIIKQELTEGRALALSHTYANVSISHVINLWGADFNAEGNLEAIYVTDSDANASIGMKKYFVGINAHGHVAISAKKIEGENIGAQVLGLFTLSSGKDIWQKLSGGGHHHHHH
B3: pCART197 (enzyme)
chain: MDDYQRNATEAYAKEVPHQITSVWTKGVTPLTPEQFRYNNEDVIHAPYLANQGWYDITKAFDGKDNLLCGAATAGNMLHWWFDQNKTEIEAYLSKHPEKQKIIFRNQELFDLKEAIRTKDSQTNSQLFEYFRDKAFPYLSARQLGVMPDLVLDMFINGYYLNVFKTQSTDVKRPYQDKDKRGGIFDAVFTRGNQTTLLTARHDLKNKGLNDISTIIKEELTKGRALALSHTYANVSISHVINLWGADFNAEGNLEAIYVTDSDANASIGMKKYFVGINKHGHVAISAKKIEGENIGAQVLGLFTLSSGKDIWQKLNGGGHHHHHH

Key:
[1] = biological target: denosumab (XGEVA); assay: cell-based or functional assay
[2] = biological target: rabbit anti-BSA (ACRIS, #R1048P); assay: cell-based or functional assay

Binder	cleavage efficacy on SDS-PAGE, fold vs pCART144 [1] [fold]	pCART124 ratio, potency ELISA [2] [fold]	pCART124 ratio (fold change in potency relative to IdeS), potency ELISA [2] [fold]
B1	~3	~3.5	
B2			8
B3			8
